From paper PMC9646914, “Nicking mechanism underlying the DNA phosphorothioate-sensing antiphage defense by SspE” (Nature Communications, 2022)

Legend:
[1] = system: SspE (Streptomyces yokosukanensis DSM 40224); test: MST; conditions: EMSA: 10 mM Tris-HCl pH 8.0 (20 mM in Fig 3 legend), 100 mM NaCl, 0.01 mM EDTA, 5% glycerol, 15 min 30 C, MST: 10 mM Tris-HCl pH 8.0, 100 mM NaCl, 12.5 nM DNA …
SspE = biological target: T1, SspE (Streptomyces yokosukanensis, UniProt A0A6I8WFL9); test: malachite green phosphate release (QuantiChrom ATPase/GTPase kit); format: biochemical; conditions: 100 uM GTP, 1 uM protein, alone or with 1 uM 40-bp DNA with or without phosphorothioate; Mg acetate 10 mM, pH 7.9, 28 C
T1 construct: full length, 771 residues (2,313-bp gene); NTD 1-324 GTPase (DGQQR motif 96-100), CTD 332-771 HNH nickase; expressed in E. coli BL21(DE3), Ni-NTA and Superdex 200

[2] = system: SspE-CTD (Streptomyces yokosukanensis DSM 40224); test: EMSA; conditions: EMSA: 10 mM Tris-HCl pH 8.0 (20 mM in Fig 3 legend), 100 mM NaCl, 0.01 mM EDTA, 5% glycerol, 15 min 30 C; MST: 10 mM Tris-HCl pH 8.0, 100 mM NaCl, 12.5 nM DNA …
[3] = system: SspE (Streptomyces yokosukanensis DSM 40224); test: EMSA; conditions: EMSA: 10 mM Tris-HCl pH 8.0 (20 mM in Fig 3 legend), 100 mM NaCl, 0.01 mM EDTA, 5% glycerol, 15 min 30 C; MST: 10 mM Tris-HCl pH 8.0, 100 mM NaCl, 12.5 nM DNA …
[4] = system: SspE K40A (Streptomyces yokosukanensis DSM 40224); test: EMSA; conditions: EMSA: 10 mM Tris-HCl pH 8.0 (20 mM in Fig 3 legend), 100 mM NaCl, 0.01 mM EDTA, 5% glycerol, 15 min 30 C; MST: 10 mM Tris-HCl pH 8.0, 100 mM NaCl, 12.5 nM DNA …

T1 sequence (A0A6I8WFL9 entry or part of it): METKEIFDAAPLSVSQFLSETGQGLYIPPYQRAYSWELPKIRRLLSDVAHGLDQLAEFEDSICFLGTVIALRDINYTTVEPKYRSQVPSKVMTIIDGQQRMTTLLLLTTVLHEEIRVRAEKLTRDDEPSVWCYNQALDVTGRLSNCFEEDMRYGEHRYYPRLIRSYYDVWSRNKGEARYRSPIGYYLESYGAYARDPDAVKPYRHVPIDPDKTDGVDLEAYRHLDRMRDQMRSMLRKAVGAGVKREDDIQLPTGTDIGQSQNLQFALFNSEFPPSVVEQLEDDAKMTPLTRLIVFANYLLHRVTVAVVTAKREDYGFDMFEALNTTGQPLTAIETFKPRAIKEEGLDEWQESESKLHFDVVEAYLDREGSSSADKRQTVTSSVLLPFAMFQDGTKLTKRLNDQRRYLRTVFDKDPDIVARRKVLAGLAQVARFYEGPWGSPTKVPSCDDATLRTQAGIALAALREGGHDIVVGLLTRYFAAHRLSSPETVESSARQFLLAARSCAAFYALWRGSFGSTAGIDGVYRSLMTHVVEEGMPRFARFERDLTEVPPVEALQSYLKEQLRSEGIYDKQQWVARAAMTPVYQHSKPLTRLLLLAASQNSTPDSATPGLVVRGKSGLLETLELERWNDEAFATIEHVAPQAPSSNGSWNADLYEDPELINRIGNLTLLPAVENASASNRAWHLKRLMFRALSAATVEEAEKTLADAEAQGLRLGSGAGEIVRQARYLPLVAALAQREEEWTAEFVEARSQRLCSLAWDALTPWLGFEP

## 2-kb PT DNA (CpsCA at both termini)
[1]; phosphorothioate C12-C13 of primer #7 and C17-C18 of primer #8
  Kd: 8.5 µM

## 2-kb non-PT DNA (CCA)
[1]
  Kd: 18.4 µM

## Nc1nc2c(ncn2[C@@H]2O[C@H](COP(=O)(O)OP(=O)(O)OP(=O)(O)O)[C@@H](O)[C@H]2O)c(=O)[nH]1 [GTP]
SspE
  GTPase activity: The GTP hydrolysis activity of SspE and its mutants was assayed

## linearized pUC19
[2]
  Kd: 3000 nM
[3]
  Kd: 17.8 µM
[4]
  Kd: 22.2 µM
